Positions count from the first letter of the chain named.
Assays:
[1] = target: T1, VLP2 (virus-like particles of AAV2) (AAV2, UniProt P03135 1-735; P03135 1-598; P03135 1-533); assay: ELISA on VLP2; binding after 43°C 15 min / untreated
T1 construct: Empty AAV2 capsid; background says about 60 protein molecules, VP1:VP2:VP3 = 1:1:10; Immobilised on the ELISA plate

[2] = target: T1, VLP2 (virus-like particles of AAV2); assay: ELISA on VLP2; binding after pH 10.0 41.2°C 15 min / untreated

T1 sequence (P03135 whole entry, chain 1 of 3): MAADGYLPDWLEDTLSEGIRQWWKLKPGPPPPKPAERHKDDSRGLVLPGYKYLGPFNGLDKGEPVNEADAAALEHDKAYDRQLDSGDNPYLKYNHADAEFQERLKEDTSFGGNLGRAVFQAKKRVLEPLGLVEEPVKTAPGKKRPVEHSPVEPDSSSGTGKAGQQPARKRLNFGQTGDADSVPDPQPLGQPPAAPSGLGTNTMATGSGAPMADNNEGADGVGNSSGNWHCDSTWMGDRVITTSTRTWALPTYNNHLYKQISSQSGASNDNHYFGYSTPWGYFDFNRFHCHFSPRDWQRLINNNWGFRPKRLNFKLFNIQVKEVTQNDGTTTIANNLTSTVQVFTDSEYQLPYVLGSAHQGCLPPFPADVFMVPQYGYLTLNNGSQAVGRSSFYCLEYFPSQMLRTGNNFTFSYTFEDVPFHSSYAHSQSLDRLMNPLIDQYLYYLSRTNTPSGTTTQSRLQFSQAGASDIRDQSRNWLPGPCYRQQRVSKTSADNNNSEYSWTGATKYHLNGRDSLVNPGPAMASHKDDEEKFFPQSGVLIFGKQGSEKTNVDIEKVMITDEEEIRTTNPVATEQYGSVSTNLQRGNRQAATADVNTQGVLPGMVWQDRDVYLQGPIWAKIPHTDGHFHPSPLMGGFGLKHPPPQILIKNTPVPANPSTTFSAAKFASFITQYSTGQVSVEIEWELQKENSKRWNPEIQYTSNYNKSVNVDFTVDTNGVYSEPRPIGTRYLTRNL
T1 sequence (P03135 139-735, tags left off, chain 2 of 3): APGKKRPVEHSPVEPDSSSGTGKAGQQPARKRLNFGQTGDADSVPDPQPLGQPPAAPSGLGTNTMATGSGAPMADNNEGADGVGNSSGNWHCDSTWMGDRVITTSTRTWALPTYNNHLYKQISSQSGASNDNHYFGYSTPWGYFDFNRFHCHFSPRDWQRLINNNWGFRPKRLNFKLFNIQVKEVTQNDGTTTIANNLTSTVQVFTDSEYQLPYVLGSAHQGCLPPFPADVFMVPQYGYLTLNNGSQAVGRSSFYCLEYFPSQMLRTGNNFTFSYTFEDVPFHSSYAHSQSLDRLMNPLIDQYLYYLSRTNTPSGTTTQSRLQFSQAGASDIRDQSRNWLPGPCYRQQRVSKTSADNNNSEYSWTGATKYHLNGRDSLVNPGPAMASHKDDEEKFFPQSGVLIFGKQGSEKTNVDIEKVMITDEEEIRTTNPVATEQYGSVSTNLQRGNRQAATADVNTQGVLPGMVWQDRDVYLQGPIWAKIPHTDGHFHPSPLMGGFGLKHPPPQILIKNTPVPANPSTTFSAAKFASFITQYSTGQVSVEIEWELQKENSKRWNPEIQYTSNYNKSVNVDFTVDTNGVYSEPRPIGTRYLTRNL
T1 sequence (P03135 203-735, chain 3 of 3): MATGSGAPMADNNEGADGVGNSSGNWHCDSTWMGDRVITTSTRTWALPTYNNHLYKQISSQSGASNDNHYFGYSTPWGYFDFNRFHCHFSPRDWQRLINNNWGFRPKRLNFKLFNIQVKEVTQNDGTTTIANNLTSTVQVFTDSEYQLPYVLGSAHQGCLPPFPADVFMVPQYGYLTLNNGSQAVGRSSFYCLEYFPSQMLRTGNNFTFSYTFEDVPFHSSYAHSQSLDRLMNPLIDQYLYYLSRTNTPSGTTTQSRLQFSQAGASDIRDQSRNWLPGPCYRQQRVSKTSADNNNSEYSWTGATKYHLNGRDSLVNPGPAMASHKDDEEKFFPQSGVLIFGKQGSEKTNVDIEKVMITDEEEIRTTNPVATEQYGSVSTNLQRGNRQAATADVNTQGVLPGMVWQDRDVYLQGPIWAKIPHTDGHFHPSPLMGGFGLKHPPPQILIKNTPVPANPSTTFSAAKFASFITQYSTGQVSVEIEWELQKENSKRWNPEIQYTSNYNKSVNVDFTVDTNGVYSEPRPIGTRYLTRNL

B1: AAV-binding protein No. 17 (Phe379Ser) (receptor)
chain: MGSAGESVQITLPKNEVQLNAYVLQEPPKGETYTYDWQLITHPRDYSGEMEGKHSQILKLSKLTPGLYESKVIVEGQNAHGEGYVNVTVKPEPRKNRPPIAIVSPQFQEISLPTTSTVIDGSQSTDDDKIVQYHWEELKGPLREEKISEDTAILKLSKLVPGNYTFSLTVVDSDGATNSTTANLTVNKAVDHHHHHH
- Residual activity [%] [1]: 80.9%

B2: AAV-binding protein No. 54 (His363Leu, Ser364Pro, His389Leu) (receptor)
chain: B1 chain with H54L, S55P, S70F, H80L
- Residual activity [%] [1]: 87.2%

B3: AAV-binding protein No. 39 (Ile366Thr, Gln441Leu) (receptor)
chain: B1 chain with I57T, S70F, Q132L
- Residual activity [%] [1]: 65.5%

B4: AAV-binding protein No. 40 (Phe379Ser, Lys455Arg) (receptor)
chain: B1 chain with K146R
- Residual activity [%] [1]: 77.4%

B5: AAV-binding protein No. 20 (Lys399Glu) (receptor)
chain: B1 chain with S70F, K90E
- Residual activity [%] [1]: 63.3%

B6: AAV-binding protein No. 48 (Ala330Gly, Gln347Pro, Lys371Glu) (receptor)
chain: B1 chain with A21G, Q38P, K62E, S70F
- Residual activity [%] [1]: 88.4%

B7: AAV-binding protein No. 19 (Val396Ala) (receptor)
chain: B1 chain with S70F, V87A
- Residual activity [%] [1]: 62.3%

B8: AAV-binding protein No. 2 (Tyr331Cys) (receptor)
chain: B1 chain with Y22C, S70F
- Residual activity [%] [1]: 73.4%

B9: AAV-binding protein No. 4 (Tyr344His) (receptor)
chain: B1 chain with Y35H, S70F
- Residual activity [%] [1]: 88.2%

B10: AAV-binding protein No. 57 (Gln334Arg, Val381Ala, His389Arg, Tyr393Cys) (receptor)
chain: B1 chain with Q25R, S70F, V72A, H80R, Y84C
- Residual activity [%] [1]: 79%

B11: AAV-binding protein No. 8 (His351Leu) (receptor)
chain: B1 chain with H42L, S70F
- Residual activity [%] [1]: 68.7%

B12: AAV-binding protein No. 50 (Val332Gln, Tyr342Cys, Val412Ala) (receptor)
chain: B1 chain with V23Q, Y33C, S70F, V103A
- Residual activity [%] [1]: 80.3%

B13: AAV-binding protein No. 44 (Gln327Arg, Lys338Arg, Leu348Pro) (receptor)
chain: B1 chain with Q18R, K29R, L39P, S70F
- Residual activity [%] [1]: 76.1%

B14: AAV-binding protein No. 27 (Tyr331Cys, Leu376Pro) (receptor)
chain: B1 chain with Y22C, L67P, S70F
- Residual activity [%] [1]: 74.4%

B15: AAV-binding protein No. 46 (Asn329Asp, Ile366Thr, Lys368Arg) (receptor)
chain: B1 chain with N20D, I57T, K59R, S70F
- Residual activity [%] [1]: 49.3%

B16: AAV-binding protein No. 104 (AVR8g + Tyr344Phe) (receptor)
chain: B1 chain with V8D, Y33C, Y35F, K53E, K62N, S70F, G81S, K90E, S167R, N178D
- Residual activity [%] [2]: 40.3%

B17: AAV-binding protein No. 25 (Asn324Asp, Tyr355His) (receptor)
chain: B1 chain with N15D, Y46H, S70F
- Residual activity [%] [1]: 77.6%

B18: AAV-binding protein No. 14 (Gln365Arg) (receptor)
chain: B1 chain with Q56R, S70F
- Residual activity [%] [1]: 57.7%

B19: AAV-binding protein No. 33 (Tyr344His, His363Arg) (receptor)
chain: B1 chain with Y35H, H54R, S70F
- Residual activity [%] [1]: 82.2%

B20: AAV-binding protein No. 5 (Asp345Asn) (receptor)
chain: B1 chain with D36N, S70F
- Residual activity [%] [1]: 71.4%

B21: AAV-binding protein No. 21 (Tyr442Phe) (receptor)
chain: B1 chain with S70F, Y133F
- Residual activity [%] [1]: 48.7%

B22: AAV-binding protein No. 12 (Ser356Cys) (receptor)
chain: B1 chain with S47C, S70F
- Residual activity [%] [1]: 84.6%

B23: AAV-binding protein No. 103 (AVR8g + Glu340Val) (receptor)
chain: B1 chain with V8D, E31V, Y33C, K53E, K62N, S70F, G81S, K90E, S167R, N178D
- Residual activity [%] [2]: 35%

B24: AAV-binding protein No. 106 (AVR8g + Tyr355Cys) (receptor)
chain: B1 chain with V8D, Y33C, Y46C, K53E, K62N, S70F, G81S, K90E, S167R, N178D
- Residual activity [%] [2]: 63.8%

B25: AAV-binding protein No. 42 (Ile319Phe, Pro322Leu, Lys448Arg) (receptor)
chain: B1 chain with I10F, P13L, S70F, K139R
- Residual activity [%] [1]: 56.6%

B26: AAV-binding protein No. 15 (Leu367Pro) (receptor)
chain: B1 chain with L58P, S70F
- Residual activity [%] [1]: 56.9%

B27: AAV-binding protein No. 51 (Leu333Pro, Pro337Leu, Thr350Met) (receptor)
chain: B1 chain with L24P, P28L, T41M, S70F
- Residual activity [%] [1]: 66.7%

B28: AAV-binding protein No. 109 (AVR8g + Glu360Lys) (receptor)
chain: B1 chain with V8D, Y33C, E51K, K53E, K62N, S70F, G81S, K90E, S167R, N178D
- Residual activity [%] [2]: 40.2%

— patent publication US20220402995A1 (TOSOH, published 2022)
